Values quoted from earlier work, collected in PMC10999626.

Target: FcRn (Mus musculus) (UniProt Q61559)
Experiment: BLI

human IgG4, sequence (P01861 whole entry): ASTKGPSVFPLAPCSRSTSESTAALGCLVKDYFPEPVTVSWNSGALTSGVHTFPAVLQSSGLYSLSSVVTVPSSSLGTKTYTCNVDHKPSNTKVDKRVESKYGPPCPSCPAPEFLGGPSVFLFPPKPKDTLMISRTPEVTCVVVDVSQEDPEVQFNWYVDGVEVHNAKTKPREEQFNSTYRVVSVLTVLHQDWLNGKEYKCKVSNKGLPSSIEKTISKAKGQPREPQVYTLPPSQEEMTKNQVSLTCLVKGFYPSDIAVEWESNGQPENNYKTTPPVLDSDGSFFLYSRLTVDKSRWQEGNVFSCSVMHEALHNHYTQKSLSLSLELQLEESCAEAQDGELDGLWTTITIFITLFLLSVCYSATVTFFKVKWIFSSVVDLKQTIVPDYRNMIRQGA
FcRn (Mus musculus), sequence (Q61559 22-365): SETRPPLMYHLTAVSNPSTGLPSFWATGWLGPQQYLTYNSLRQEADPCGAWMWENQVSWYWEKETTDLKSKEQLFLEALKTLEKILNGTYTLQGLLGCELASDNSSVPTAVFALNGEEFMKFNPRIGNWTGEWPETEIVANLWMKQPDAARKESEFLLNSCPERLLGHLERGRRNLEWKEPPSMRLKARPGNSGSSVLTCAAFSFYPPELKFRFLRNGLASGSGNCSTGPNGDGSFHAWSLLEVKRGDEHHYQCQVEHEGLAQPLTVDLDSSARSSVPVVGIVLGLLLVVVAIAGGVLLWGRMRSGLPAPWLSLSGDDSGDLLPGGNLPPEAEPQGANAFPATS

Q: Which Kd does the source give for human IgG4 (from UniProt P01861) here?
A: 6 nM
